# Assay results reported in patent publication US20200157219A1 (SYSTIMMUNE, published 2020).
# Columns and labels:
# [1] = target: T1, human PD-1 extracellular domain (human, UniProt Q15116 25-170); assay: bio-layer interferometry (Octet Red 96), antibody on anti-human Fc biosensor, PD-1 ECD in solution, 1:1 global fit, 30 C
# T1 construct: extracellular domain; Soluble analyte in the bio-layer interferometry assay; also called recombinant human PD-1 extracellular domain protein
# Procedure: The binding kinetics of selected anti-PD-1 antibodies AB1-AB5 and AB1HU-AB5HU was determined by bio-layer interferometry analysis on a ForteBio Octet Red 96 instrument. First, purified antibodies were produced by protein A chromatography using HEK-293 transiently-transfected antibody supernatants. This assay was performed by immobilizing the purified antibodies to anti-human Fc biosensors. PD-1 binding to and dissociation from the biosensors was then observed at various concentrations of PD-1. Specifically, eight anti-human Fc biosensors were placed into wells containing the same purified antibody for 5 minutes. Biosensors were equilibrated in kinetics buffer (Pall ForteBio) for 1 minute to establish a baseline. Association of PD-1 was observed by placing the biosensors into wells containing various concentrations of human PD-1 extracellular domain for 5 minutes. Dissociation was measured after transfer of the biosensors into kinetics buffer and monitoring the interferometry signals for 15 minutes. All steps of the assay were performed at 30° C. with shaking at 1000 RPM. The on and off rates (kon and koff) and the equilibrium binding constant KD were determined using the software provided by the manufacturer and were fit using a 1:1 binding global fit model comprising several of the concentrations tested.
# [2] = target: T2, human PD-1 expressed on Jurkat cells (human, UniProt Q15116 25-288); assay: blocking of biotinylated human PD-L1 binding to Jurkat/huPD-1 cells, flow cytometry, streptavidin-APC MFI
# T2 construct: whole, on cells; also called huPD-1; Jurkat/huPD-1 clonal cell line
# T2 sequence (Q15116 25-288): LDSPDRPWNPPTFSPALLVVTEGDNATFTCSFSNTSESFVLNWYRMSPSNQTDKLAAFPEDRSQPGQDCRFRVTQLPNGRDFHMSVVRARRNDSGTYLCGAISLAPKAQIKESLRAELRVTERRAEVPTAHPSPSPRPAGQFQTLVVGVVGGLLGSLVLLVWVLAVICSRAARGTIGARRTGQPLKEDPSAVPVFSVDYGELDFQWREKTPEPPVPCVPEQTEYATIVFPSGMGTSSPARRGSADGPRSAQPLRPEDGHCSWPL
# Procedure: The Jurkat/huPD-1 clonal cell line was labeled with FVS520 viability dye (BD Biosciences, 1:2000 dilution) for 15 minutes at room temperature. The labeled cells were then diluted in FACS buffer (2% FBS in PBS), added to V-bottom 96-well plates (50,000 cells per well), and stained with 0-100 nM anti-huPD1 or isotype control antibody on ice for 30 minutes. Cells were washed to remove excess antibody, then labeled with 15 ug/ml His-tag purified, monobiotinylated […] on ice for 30 minutes. Cells were washed again with FACS buffer, then labeled with 0.25 ug/ml APC-conjugated streptavidin on ice for 20 minutes. Cells were washed again with before acquisition on a BD FACSCalibur flow cytometer equipped with the Cytek AMS plate loader system. AB1HU-AB5HU results in this assay are shown in FIG. 3. and show the median fluorescence intensity (MFI) on the APC channel after gating on live cells. Error bars represent the standard deviation of duplicate samples.
# [3] = target: T2, human PD-1 expressed on Jurkat cells; assay: flow cytometry on Jurkat/huPD-1 cells, anti-human Fc AF647 secondary, MFI
# Procedure: The human PD-1 gene was subcloned into the pcDNA3.1 mammalian expression vector and transfected into the Jurkat human T cell line. A clonal cell population expressing high levels of huPD-1 was generated by G418 drug selection and single-cell sorting. This Jurkat/huPD-1 clonal cell line was labeled with FVS520 viability dye (BD Biosciences, 1:2000 dilution) for 15 minutes at room temperature. The labeled cells were then diluted in FACS buffer (2% FBS in PBS), added to V-bottom 96-well plates (50,000 cells per well), and stained with 0-25 nM anti-huPD1 or isotype control antibody on ice for 30 minutes. Cells were washed to remove excess primary antibody, then labeled with Alexa luor 647-conjugated goat anti-human Fc secondary antibody (Jackson Immunoresearch, 1:1600 dilution) on ice for 20 minutes. The labeled cells were then washed with FACS buffer before acquisition on a BD FACSCalibur flow cytometer equipped with the Cytek AMS plate loader system. Data points show the median fluorescence intensity (MFI) on the AF647 channel after gating on live cells. Nonlinear regression methods were used to fit curves to each data set, and error bars represent the standard deviation of duplicate samples.
# [4] = target: T2, human PD-1 expressed on Jurkat cells; assay: blocking of biotinylated human PD-L2 binding to Jurkat/huPD-1 cells, flow cytometry, streptavidin-APC MFI
# Procedure: The Jurkat/huPD-1 clonal cell line was labeled with FVS520 viability dye (BD Biosciences, 1:2000 dilution) for 15 minutes at room temperature. The labeled cells were then diluted in FACS buffer (2% FBS in PBS), added to V-bottom 96-well plates (50,000 cells per well), and stained with 0-100 nM anti-huPD1 or isotype control antibody on ice for 30 minutes. Cells were washed to remove excess antibody, then labeled with 15 ug/ml His-tag purified, monobiotinylated huPD-L2 on ice for 30 minutes. Cells were washed with FACS buffer, then labeled with 0.25 ug/ml APC-conjugated streptavidin on ice for 20 minutes. Cells were washed again with FACS buffer before acquisition on a FACSCalibur flow cytometer equipped with the Cytek AMS plate loader system. […] Error bars represent the standard deviation of duplicate samples.
# [5] = target: T2, human PD-1 expressed on Jurkat cells; assay: flow cytometry on Jurkat/huPD-1 cells, biotinylated PD-L2 detected with streptavidin-APC, MFI
# T1 sequence (Q15116 25-170): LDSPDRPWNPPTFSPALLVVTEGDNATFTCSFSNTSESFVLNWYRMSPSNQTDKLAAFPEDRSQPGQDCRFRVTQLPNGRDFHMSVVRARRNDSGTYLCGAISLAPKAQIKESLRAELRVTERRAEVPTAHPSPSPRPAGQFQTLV
Binder,Kd [1],koff [1],kon [1],IC50 (read off the curve) [2],EC50 (read off the curve) [3],IC50 (read off the curve) [4],binding result [5]
"AB2 (antibody, human IgG1, kappa, V domains shown, Rabbit variable domains on human IgG1 / human kappa constant domains; also called AB2 chimeric) VH: QEQLVESGGGLVQPEGSLTLTCTASGFSFSSYWMCWVRQAPGKGLEWIGCITTGSGSTYYASWAKRRFTISKTSSTTVTLQMTSLTAADTATYFCTRAFDLWGPGTLVTVSS VL: DVVMTQTPASVSAVVGGTVTIKCQASQSIYSYLNWYQQKPGQPPKLLIYGASNLASGVSSRFKGSGSGTEFTLTISDLECADAATYYCQCSWLSGAVGNAFGGGTEVVVKR",86 nM,0.0057 s⁻¹,67000 M⁻¹ s⁻¹,,,,
"AB1 (antibody, human IgG1, kappa, V domains shown, Rabbit variable domains on human IgG1 / human kappa constant domains; purified by protein A from HEK-293 supernatant; also called AB1 chimeric; rabbit/human chimeric anti-PD-1 antibody AB1) VH: QSLEESGGDLVKPEGSLTLTCKASGFDFSSGYWICWVRQAPGKGLELIACIYAGTSGSTSYASWARGRFTISETSSTTVTLQMTSLTAADSATYFCARNLYTYNSLWGQGTLVTVSS VL: QVLTQTASSVSAAVGGTVTISCQSSQSVYDNNWLAWYQQKPGQPPMLLIYTVSTLASGVSSRFKGSGSGTQFTLTISGVQCDDAATYYCQGTYYSSGWNFAFGGGTEVVVKR",4.8 nM,0.00016 s⁻¹,36000 M⁻¹ s⁻¹,,,,
"AB3HU (antibody, human IgG1, kappa, V domains shown, Humanized, human gamma-1 / kappa constant domains as in the full-length entries; also called humanized form of antibody AB3) VH: QEQVKETGGGLVQPGGSLRLSCAASGFTISSYGVSWVRQAPGKGLEWVALIFPGIGFKDYASWVNGRFTLSSDNAQNTVELQMNSLRAEDTAVYYCARDLDLWGQGTLVTVSS VL: DIQMTQSPSSLSASVGDRVTITCQSSPSVYSNYLSWYQQKPGKVPKLLIYYASTLASGVPSRFSGSGSGTDFTLTISSLQPEDVATYYCAGGYSSSTRAFGGGTKVEIKR",1.1 nM,0.00014 s⁻¹,130000 M⁻¹ s⁻¹,~1 nM,~1 nM,~1 nM,
"AB3 (antibody, human IgG1, kappa, V domains shown, Rabbit variable domains on human IgG1 / human kappa constant domains; also called AB3 chimeric) VH: QEQVKETGGGLVQPGGSLTLSCKASGFTISSYGVSWVRQAPGKGLEWIALIFPGIGFKDYASWVNGRFTLSSDNAQNTVELQMNSLTAADTAAYFCARDLDLWGQGTLVTVSS VL: QVLTQTPSPVSAAVGGTVSISCQSSPSVYSNYLSWFQQKPGQPPKLLIYYASTLASGVPSRFKGSGSGTQFTLTISDVQCDDAATYYCAGGYSSSTRAFGGGTEVVVKR",0.9 nM,0.00012 s⁻¹,130000 M⁻¹ s⁻¹,,,,
"AB2HU (antibody, human IgG1, kappa, V domains shown, Humanized, human gamma-1 / kappa constant domains as in the full-length entries; also called humanized form of antibody AB2) VH: QEQLLESGGGLVQPGGSLRLSCTASGFSFSSYWMCWVRQAPGKGLEWIGCITTGSGSTYYASWAKRRFTISKDNSKNTVTLQMNSLRAEDTAVYYCTRAFDLWGQGTLVTVSS VL: DIQMTQSPSSLSASVGDRVTITCQASQSIYSYLNWYQQKPGKAPKLLIYGASNLASGVPSRFSGSGSGTDFTLTISSLQPEDFATYYCQSSWLSGAVGNAFGGGTKVEIKR",17 nM,0.0015 s⁻¹,89000 M⁻¹ s⁻¹,~2 nM,~0.6 nM,~0.2 nM,
"AB1HU (antibody, human IgG1, kappa, V domains shown, Humanized, human gamma-1 / kappa constant domains as in the full-length entries; also called humanized form of antibody AB1) VH: EVQLVESGGGLVQPGGSLRLSCAASGFDFSSGYWICWVRQAPGKGLELIACIYAGTSGSTSYASWARGRFTISETSKNTVTLQMNSLRAEDSAVYYCARNLYTYNSLWGQGTLVTVSS VL: DIQMTQSPSTLSASVGDRVTITCQSSQSVYDNNWLAWYQQKPGKAPKLLIYTVSTLASGVPSRFSGSGSGTEFTLTISSLQPDDFATYYCQGTYYSSGWNFAFGGGTKVEIKR",16 nM,0.0002 s⁻¹,12000 M⁻¹ s⁻¹,~4 nM,,,

# Results, then the binder that gave them:
Kd [1],koff [1],kon [1],IC50 (read off the curve) [2],EC50 (read off the curve) [3],IC50 (read off the curve) [4],binding result [5],Binder
3.3 nM,0.00026 s⁻¹,78000 M⁻¹ s⁻¹,,,,,"AB5 (antibody, human IgG1, kappa, V domains shown, Rabbit variable domains on human IgG1 / human kappa constant domains; also called AB5 chimeric) VH: QEQLEESGGDLVKPEGSLTLTCTASGFSFSSSHWICWVRQAPGKGLEWIACIYTGSIDVFYCASWAKGRFTISKPSSTTVTLQVPSLTAADTATYFCARAANTDTTYFNLWGPGTLVTVSS VL: AYDMTQTPSSVSAAVGGTVTINCQASQSINNQLSWYQQKPGQPPKLLIYGASTLASGVPSRFTGSGSGTEFTLTISGVQCDDAATYYCHVHYCSGGSCFWAFGGGTEVVVKR"
,,,,,,binds,"recombinant human PD-L2 (ligand, UniProt Q9BQ51 20-220, looked up, monobiotinylated, His-tag purified, recombinant soluble protein; also called huPD-L2) ligand: LFTVTVPKELYIIEHGSNVTLECNFDTGSHVNLGAITASLQKVENDTSPHRERATLLEEQLPLGKASFHIPQVQVRDEGQYQCIIIYGVAWDYKYLTLKVKASYRKINTHILKVPETDEVELTCQATGYPLAEVSWPNVSVPANTSHSRTPEGLYQVTSVLRLKPPPGRNFSCVFWNTHVRELTLASIDLQSQMEPRTHPT"
9.2 nM,0.001 s⁻¹,110000 M⁻¹ s⁻¹,,,,,"AB4 (antibody, human IgG1, kappa, V domains shown, Rabbit variable domains on human IgG1 / human kappa constant domains; also called AB4 chimeric) VH: QSLEESGGRLVTPGTPLTLTCTVSGFSLSSYAMSWVRQAPGKGLEYIGYIGDTTGIAYASWANGRFTISKTSTTVDLKITSPTTGDTATYFCARGWSYLDIWGQGTLVTVSS VL: ALVMTQTPSSVSAAVGGTVTINCQASQNIYSNLAWYQQKPGQPPSLLIYQASTLASGVSSRFSGSGYGTEFTLTISDLECADAATYYCQGGYYSAALNTFGGGTEVVVKR"
6.6 nM,0.0004 s⁻¹,61000 M⁻¹ s⁻¹,,,,,"AB5HU (antibody, human IgG1, kappa, V domains shown, Humanized, human gamma-1 / kappa constant domains as in the full-length entries; also called humanized form of antibody AB5; ABSHU [sic]) VH: EVQLLESGGGLVQPGGSLRLSCAASGFTFSSSHWICWVRQAPGKGLEWIACIYTGSIDVFYYASWAKGRFTISRDNSKNTLYLQMNSLRAEDTAVYYCARAANTDTTYFNLWGQGTLVTVSS VL: AYDMTQSPSSLSASVGDRVTINCQASQSINNQLSWYQQKPGKVPKLLIYGASTLASGVPSRFTGSGSGTDFTLTISSLQPEDVATYYCHVHYCSGGSCFWAFGGGTKVEIKR"
4.3 nM,0.00038 s⁻¹,87000 M⁻¹ s⁻¹,,,,,"AB4HU (antibody, human IgG1, kappa, V domains shown, Humanized, human gamma-1 / kappa constant domains as in the full-length entries; also called humanized form of antibody AB4) VH: EVQLVESGGGLVQPGGSLRLSCTASGFSLSSYAMSWVRQAPGKGLEYIGYIGDTTGIAYASWANGRFTISKDNTKNTVDLQMNSLRAEDTAVYYCARGWSYLDIWGQGTLVTVSS VL: ALVMTQSPSSLSASVGDRVTITCQASQNIYSNLAWYQQKPGKVPKLLIYQASTLASGVPSRFSGSGYGTDFTLTISSLQPEDVATYYCQGGYYSAALNTFGGGTKVEIKR"
